Measurements: publication PMC2790002

Substrate: CCCC(=O)SCC[N+](C)(C)C
Assay: purified protein
Type: biochemical, Homo sapiens
Details: 24 °C, 317 pM enzyme, 0.1 mM DTNB, 0.005-3 mM substrate

B1: human butyrylcholinesterase (Homo sapiens) (protein)
chain: EDDIIIATKNGKVRGMNLTVFGGTVTAFLGIPYAQPPLGRLRFKKPQSLTKWSDIWNATKYANSCCQNIDQSFPGFHGSEMWNPNTDLSEDCLYLNVWIPAPKPKNATVLIWIYGGGFQTGTSSLHVYDGKFLARVERVIVVSMNYRVGALGFLALPGNPEAPGNMGLFDQQLALQWVQKNIAAFGGNPKSVTLFGESAGAASVSLHLLSPGSHSLFTRAILQSGSFNAPWAVTSLYEARNRTLNLAKLTGCSRENETEIIKCLRNKDPQEILLNEAFVVPYGTPLSVNFGPTVDGDFLTDMPDILLELGQFKKTQILVGVNKDEGTAFLVYGAPGFSKDNNSIITRKEFQEGLKIFFPGVSEFGKESILFHYTDWVDDQRPENYREALGDVVGDYNFICPALEFTKKFSEWGNNAFFYYFEHRSSKLPWPEWMGVMHGYEIEFVFGLPLERRDNYTKAEEILSRSIVKRWANFAKYGNPNETQNNSTSWPVFKSTEQKYLTLNTESTRIMTKLRAQQCRFWTSFFPKVLEMTGNIDEAEWEWKAGFHRWNNYMMDWKNQFNDYTSKKESCVGL
Km: 100 µM
